Results taken from PMC3406103.

System: C/EBPβ (endogenous, HaCaT nuclear extract)
Assay: EMSA
Conditions: 10 mM Tris-HCl pH 7.5, 50 mM NaCl, 1 mM EDTA, 15% glycerol, 1 mg/ml BSA, 25 µg/ml poly(dI-dC), 11.5 mM DTT, 26 µg/ml aprotinin, 1.5 mM PMSF, 0.5 mg/ml salmon …; scale: % of pLXSN control, normalized to C/EBPβ level

CCL20 promoter nt 734-748
binding signal: < 50
